# The DeepSol protein solubility set
# Assay: soluble on expression in E. coli; label from the status in PepcDB or PDB records
row,Sequence,soluble on expression in E. coli
1,MSGVRAVRISIESACEKQVHGVGLDGTETYLPPLSMSQNLARLAQRIDFSQGSGSEEGEAAGTEGDAQDWPGAGSSADQDDEEGVVKFQPSLWPWDSVRNNLRSALTEMCVLYDVLSIVRDKKFMTLDPVSQDALPPKQVFVDFNLEHHHHHH,not soluble
2,MENDLKKLTKEIVGRLKNKSVKELLSYAIFNEEEEAKFYADLAEKVSRPSVKALFRRMSEESKVHELLLRKLFSKYFPGEEPVKVDVPPVEVVPFISKFESIEDYLEGLRYCMESELFAKRTYVLLSQVAENEGVRMVANELASIEQNHYEEIKAVYELVKTFRDREMLPESLKSGAYLITNESVGKYLILDLIDENKKLKLFVRENPEIFRRLIGENPNVEITWIAKVNAPNTISPTETHVLKKDIESFFEKVTKEGKKGVVFIQNVAYLVANLGFKETVDLLLHAKDLAVYYGGYLIITANPEVFEKTEWALLKLEFEVLF,not soluble
3,MGIFSERLKEAMQQANITSAQLSKQTGIGRSSISQWLSNKYVAKHDKVTALAAVLNVSPDWLLGTTDVATAVSPEAVPIPVSVTPTPAVDPELITLWEQLDTKQRSKLIKKARKLLTKSAEQPNTKRKKNKKKKKGKKRK,not soluble
4,MSRGGKGGDGDTRGGGGENGNQNNKGGNDEGGNEIEVPSMEELDGLADKIADEFVSQGMKIYQTLDPETRPYPDEYREGLRSQVEELPEKFKEFYTPGPGEFTAKLDLIDELTRKLDTQAGDFNTGEISGHVHDAMDNMGEWEGALSISFRKGYLDPLYEGIIPNHGRVLALLHDNFQAMRDIYAEGRKSLKKIGEDGLSAMEQADDVDGAAVVTALTVLAAAFGLGFAGLAAVPGIATAAGVAGAAVAGGLAVASDQAPEPEEIPLAGSSAEDVLVNIYDALSKLEDDILTKEAELIDTILRGCDETLELVGDTTENSMLVPKMPDLVGTALDDYHQISEGLNQFD,not soluble
5,MPLGLGRRKKAPPLVENEEAEPGRGGLGVGEPGPLGGGGSGGPQMGLPPPPPALRPRLVFHTQLAHGSPTGRIEGFTNVKELYGKIAEAFRLPTAEVMFCTLNTHKVDMDKLLGGQIGLEDFIFAHVKGQRKEVEVFKSEDALGLTITDNGAGYAFIKRIKEGSVIDHIHLISVGDMIEAINGQSLLGCRHYEVARLLKELPRGRTFTLKLTEPRKAFDMISQRSAGGRPGSGPQLGTGRGTLRLRSRGPATVEDLPSAFEEKAIEKVDDLLESYMGIRDTELAATMVELGKDKRNPDELAEALDERLGDFAFPDEFVFDVWGAIGDAKVGRYLEHHHHHH,not soluble
6,MGSDKIHHHHHHAQLVERVCRTDYKISPERKGELLLELDNISFFKDNEFAGTVIKGYSLPGLWIQPKFVYYPLKNIKLEGGVHMLWFSGAYRYPSVSYQDIALWKGEQYQKGAHLLPFFRAQISMKSVDLILGNIYGGSNHGLIAPLYNPELNLTADPETGFQVLAGAPWIDLDAWIDWQSFIFRDDTHQEAFTVGLSTRFKLNAPSSTFHCYIPLQILAQHRGGEIDTIRESSVQTLMNGAVGAGVTWNIDRRILKRVNVELDAAGYYQQKGELWPYHKGIGVYSSAFVDLGNFRVKMGHWICNDFITMFGIPYFGTVSTKKEGITYDKPQTLFCSIEYSRMFGKHYALGLKADAYQFFPGTMRSANGELTSPGSTTSFSVGVYFRINPSFLLKKF,not soluble
7,MSVLEKIDSPADLKKVSNQELEELASEIRTAVLHKVSNIGGHVGPNLGVTELTIALHKVFNSPIDKFIWDVSHQTYPHKILTGRKNGFTDGHFHDITPYTSQRESEHDFFTVGHTSTSIANALGYAKARDLTNDKGNIVAVIGDGSLSGGLAMEALNNAGDFKGNLIILVNDNQMSIAENHGGLYRNLAELRATNGQAENNFFKTFGLDYKYLENGNDIESLIHLFEEVKDIDHPIVLHIHTEKGRGYQPALENKEAFHWHMPFDLETGQSKVIDSGKSYSSVMLDYMDKKVSEGLPLVAINAAIPGIFGLKQFAAKYPDRYIDAGIAEQFTITFGGAMAAAGARPIIFHNSTFVQRAYDQFWHDLAINEEPAIVIVKGGVISGSDETHQGSSAMTWISNIPNIKYLAPTSEEEFISILDWALEQHEEPVVIQMPEHGLESRPTVLTDYSTPSYQMTKSGEKVALLALGGLYSHGEKVAKVLAENGINATLINPLFINDLDQAFLENLVENHQVIATIEDGILDGGFGQKVASFLGKYDVKVLNFGAKREFNDSVPVTELYNRYHLTPELMVADILSLLKLEHHHHHH,not soluble
8,MGSDKIHHHHHHMNIQQLRYVVAIANNGTFREAASKLFVSQPSLSVSIKDLEAELGFQIFNRTTSGTVLTSQGLVFYEKALEVVKSFDSFEKTFSQADLDQNEFSIASQHYDFLPPLITAFSQQYDGHRVFRIFESTTIQILDEVAQGNSEIGIIYLNVDNQKGLFQRMDKLGLEYVSLIPFTTHIYLSKTHPLANREALYLNDIQGLPAVRFTQERDEYLYYSENFVDTSECPRIYNVSDRATLNGILERTNAFATGSGFLDHRSVNGIKVIPLADHIDNQMIYVKRKDKNLSVAGATFVTILKDYFDKRRKALT,not soluble
9,MQILEPQQFATWNEPIEMLYACHSKVKRFCRQLSILPDYLEKHGYTQAVLNDVEQILSYFNRAAPLHHDDEELDFFPQLVKVAPQTQTSIDELEKQHEYLHENWNALSVQLEELISEQRQDIDKHLIERFIQGYDRHIALEEPLFEMGRECLSADILTEMGKHMSARRQVKE,not soluble
10,MQGVKERFLPLGNSGDRAPRPPDGRGRVRPRTQDGVGNHTMARIPKTLKFVVVIVAVLLPVSPRRGPWLGKSAPGAGRGQGDGDTAGMPGPGHLRPGMSGQDELAVGVRGRTGSPGWAGGTRPRGSREAVPLAAPSPRREGSSRIERGRESRWNP,soluble
11,MPELDESASFAELLEAHAGGTRNVRPGDRISAAIVAITDDSVFVATGSKVDGVIDRRELEEADGSLPYAVGDRVDLYVTAVNGQEIRLSKGLSGQGGAAVLEEARDSGVPVEGRVTGTCKGGYNVDVLRKRAFCPGSQIDLHQLEDAESVVGQTFQFLVTRVEQHGRNIVVSRRALLERERDAALATFLEGVKEGDVLEGTVTRLAPFGAFVEIAPGVDGMVLEHHHHHH,not soluble
12,MNKLAVLYAEHIATLQKRTREIIERENLDGVVFHSGQAKRQFLDDMYYPFKVNPQFKAWLPVIDNPHCWIVANGTDKPKLIFYRPVDFWHKVPDEPNEYWADYFDIELLVKPDQVEKLLPYDKARFAYIGEYLEVAQALGFELMNPEPVMNFYHYHRAYKTQYELACMREANKIAVQGHKAARDAFFQGKSEFEIQQAYLLATQHSENDNPYGNIVALNENCAILHYTHFDRVAPATHRSFLIDAGANFNGYAADITRTYDFTGEGEFAELVATMKQHQIALMNQLAPGKLYGELHLDCHQRVAQTLSDFNIVDLSADEIVAKGITSTFFPHGLGHHIGLQVHDVGGFMADEQGAHQEPPEGHPFLRCTRKIEANQVFTIEPGLYFIDSLLGDLAATDNNQHINWDKVAELKPFGGIRIEDNIIVHEDSLENMTRELRLRLTTHSLRGLSAPQFSINDPAVMSEYSYPSEPLSYEEEIKKSTFIVHVRTRRILVRRRTLSPILIAVTPMPAITAGLM,soluble
13,MSLEQELKLLFLRAHQRALSSLQFTEEAVDFLISCADGDARRLLNLLEQTKTACLTIKTAVVDVELLHNVIVQNSRRFDKGGEAFYDQISALHKSVRGSNPDAALYWLCRMLDGGVDPYYLARRIIRMSWEDIGLADPKAIQIANDAAATYERLGSPEGELALAQAVIYLSVAAKSNAGYVAFNQAMEFIKRDKSREVPIHLRNAPTQLMKKLGYGHEYRYAHDEPHGYAAGECYLPEGMPEVNWYNPVQRGLETKIAEKLAFLRQLDKDVKKEGHHHHHH,not soluble
14,MIRVMLSQLSSVLNARLIGEDRAVSAVSTDSRAIPAEALFVALVGERFDAHDFASQAVTGGAVALLVERELDAECSQLVVADTKQALGQLGSWVHAQCQTPTVAITGSCGKTTVKEMVASILSQKGQVLYTQGNFNNDIGVPLTLLRSTTEDDYAVIELGANHVGEIAYTTALVKPDVALVNNVAAAHLEGFGSMDGVKRAKGEIYQGLQAGAVAIVNLDSNGGDYWKAVLADKTVKTFSATDHNADFYPRDVRLNALGIASFTLVTPVGEVGVELGIMGQHNVANALAAAALSLEMGASLAEIGQGLAHLSKVKGRVDMAQLRDDITLIDDSYNASVPAMKAAVELLGSFSAVRWLILGNMAELGDESLALHQQVGEHAAPFGFEFVLTYGKDAKVISDLCQGHHFATHQDMMTFIEQHIEQQQGRTQVLLVKGANSAGMSKIAAALKEKFA,not soluble
15,MEKLENFWTRDELNTFFDYVTPERDVEQFTMFRVLAYSGIRKGELLALTWKDINFEDNTLRVNKTLTQGLGGKLIVQPPKSRAGRRTIDLDDSTMRYLRQWKGVQRETFLGMGFNTNNVDQLVFASNRNHFRSMNTPTKWLNKAIKATGLKHISIHGFRHTHASLLYQSGVGLKETQQRLGHSRADSSVTLDVYTHTTEQQNVAALQRFENYVEAKLEHHHHHH,not soluble
16,MKKQHDTIIVLDFGSQYNQLIARRIREFGVYSELHPHTITAEEIKAMNPKGIIFSGGPNSVYGEGALHCDEKIFDLGLPIFGICYGMQLMTQQFGGTVERANHREYGKAVLKVENESKLYANLPEEQVVWMSHGDLVTGLPEGFVVDATSESCPIAGMSNEAKNLYGVQFHPEVRHSEHGNDLIKNFVFGVCGCSEGWNMENFIEVELEKIRETVGDKKVLCALSGGVDSSVVAVLIHKAIGDQLTCIFVDHGLLRKGEAEGVMKTFSEGFHMNVIKVDAKERFMNKLKGVEDPEQKRKIIGNEFIYVFDDEASKLEGMDFLAQGTLYTDIVESGTATAQTIKSHHNVGGLPEDMQFKLIEPLNTLFKDEVRVLGSELGIPDEIVWRQPFPGPGLGIRVLGEITEEKLEIVRESDAILREEIIKAGLDREIWQYFTALPGMRSVGVMGDERTYDYTVGIRAVTSIDGMTADWARIPWDVLEKISVRIVNEVKHVNRIVYDVTSKPPATIEWE,not soluble
17,MTEIQTIRKKVEQQITSLQNETDEIAEFNQAKVLDAFQENKVSDFHFNPSTGYGYDDEGRDTLERVYASVFKTEAALVRPQIISGTHAISTVLFGILRPGDELLYITGEPYDTLEEIVGIRSEGQGSLKDFQIGYDAVPLLPNGEIDYPAVSKKISANTKMIGIQRSRGYADRPSFTIEKIKEMVTFVKNINPNIIVFVDNCYGEFVERIEPTEVGADIIAGSLIKNPGGGLAKTGGYIAGRNTLVDLCGYRLTTPGIGREAGASLYSLLEMYQGFFLAPHVTAQAIKGARFTAAMLAEFGVEADPLWDAKRTDLIQSVSFHSKDKMIAFAQAIQAASPVNAHVLPIGAYMPGYEDDVIMAAGTFIQGASLELTADGPIREPYQLYVQGGLTYEHVKIAVTRAIENSLLEHHHHHH,soluble
18,ECGHISVSAPIVHLGDPITASCIIKQNCSHLDPEPQILWRLGAELQPGGRQQRLSDGTQESIITLPHLNHTQAFLSCSLNWGNSLQILDQVELRAGYPPAIPHNLSCLMNLTTSSLICQWEPGPETHLPTSFTLKSFKSRGNCQTQGDSILDCVPKDGQSHCSIPRKHLLLYQNMGIWVQAENALGTSMSPQLCLDPMDVVKLEPPMLRTMDPSPEAAPPQAGCLQLSWEPWQPGLHINQKCELRHKPQRGEASWALVGPLPLEALQYELCGLLPATAYTLQIRCIRWPLPGHWSDWSPSLELRTTERAAAPR,soluble
19,MSLNYLSGQAANPRGIIGEITTKIWSSYFEDLSKWTINNTEMAGVTKVLDVGYGGGSNVKNLVNLDQNLTIYGIDISKESYKTASALNKKAISDGKVKLTVADVADMDYREESFDLVYAIQTHMYWDNLQKGFEEIYRVMSQEGVLILSSEKDKIDYHMDEYKTTASLTALLKEIGFREVVEKEKGNWVLYTVKKEGHHHHHH,soluble
